The record followed here is article PMC11363321.

The subject of this series is Deoxymab-3 (DX3), humanized 3E10 antinuclear IgG1 (humanized (3E10 CDRs from MRL/lpr mouse on human IgG1 framework)). Kind of series: SPR. As to conditions: 1:1 kinetic fit, SPR Biacore T200, CM5 chip with neutravidin, biotinylated ssDNA (0.025 uM) immobilized, DX3 in PBS pH 7.4, contact 120 s, dissociation 400 s, temperature not …. For orientation: In SPR one partner is held on a chip, and binding of the other changes the refractive index at the surface.

As for “30-mer single-stranded DNA oligonucleotide”, the Kd was 113 nM (experiment 1, DX3 titrated from 500 nM) and 112 nM (experiment 2 (replicate)).

For orientation: Kd means the concentration at which binding is half-saturated. A high value points to weaker binding.
